Laboratory results reported in US20180155451A1 (published 2018).

B1: GpH7-A5/GpH7-B3 variant G237_02A/GpL16-k0 (antibody, human IgG1, kappa)
heavy 1: not shown
heavy 2: not shown
light: DIVMTQSPLSLPVTPGEPASISCQASESLVHSNRNTYLHWYLQKPGQSPQLLIYKVSNRFSGVPDRFSGSGSGTDFTLKISRVEAEDVGVYYCSQNTHVPPTFGQGTKVEIERTVAAPSVFIFPPSDEQLKSGTASVVCLLNNFYPREAKVQWKVDNALQSGNSQESVTEQDSKDSTYSLSSTLTLSKADYEKHKVYACEVTHQGLSSPVTKSFNRGEC
notes: Heterodimerized IgG1; mutation in the GpH7-B3 H chain only; also called He Ab
B2: GpH7-A5/GpH7-B3 variant G237_18N/GpL16-k0 (antibody, human IgG1, kappa)
heavy 1: not shown
heavy 2: not shown
light: B1 light
notes: as for B1
B3: GpH7-A5/GpH7-B3 variant G237_10E/GpL16-k0 (antibody, human IgG1, kappa)
heavy 1: not shown
heavy 2: not shown
light: B1 light
notes: as for B1
B4: GpH7-A5/GpH7-B3 variant G237_15Y/GpL16-k0 (antibody, human IgG1, kappa)
heavy 1: not shown
heavy 2: not shown
light: B1 light
notes: as for B1
B5: GpH7-A5/GpH7-B3 variant G237_08L/GpL16-k0 (antibody, human IgG1, kappa)
heavy 1: not shown
heavy 2: not shown
light: B1 light
notes: as for B1
B6: GpH7-A5/GpH7-B3 variant G237_06M/GpL16-k0 (antibody, human IgG1, kappa)
heavy 1: not shown
heavy 2: not shown
light: B1 light
notes: as for B1
B7: GpH7-A5/GpH7-B3 variant G236_09D/GpL16-k0 (antibody, human IgG1, kappa)
heavy 1: not shown
heavy 2: not shown
light: B1 light
notes: as for B1
B8: GpH7-A5/GpH7-B3 variant G237_20W/GpL16-k0 (antibody, human IgG1, kappa)
heavy 1: not shown
heavy 2: not shown
light: B1 light
notes: as for B1
B9: GpH7-A5/GpH7-B3 variant G237_09D/GpL16-k0 (antibody, human IgG1, kappa)
heavy 1: not shown
heavy 2: not shown
light: B1 light
notes: as for B1
B10: GpH7-A5/GpH7-B3 variant G237_04F/GpL16-k0 (antibody, human IgG1, kappa)
heavy 1: not shown
heavy 2: not shown
light: B1 light
notes: as for B1
B11: GpH7-A5/GpH7-B3 variant G237_19Q/GpL16-k0 (antibody, human IgG1, kappa)
heavy 1: not shown
heavy 2: not shown
light: B1 light
notes: as for B1
B12: GpH7-A5/GpH7-B3 variant S267_02A/GpL16-k0 (antibody, human IgG1, kappa)
heavy 1: not shown
heavy 2: not shown
light: B1 light
notes: heterodimerized; mutation in one H chain only; also called He Ab
B13: GpH7-A5/GpH7-B3 variant S267_01G/GpL16-k0 (antibody, human IgG1, kappa)
heavy 1: not shown
heavy 2: not shown
light: B1 light
notes: as for B12
B14: GpH7-A5/GpH7-B3 variant T335_04F/GpL16-k0 (antibody, human IgG1, kappa)
heavy 1: not shown
heavy 2: not shown
light: B1 light
notes: as for B12
B15: GpH7-A5/GpH7-B3 variant T335_08L/GpL16-k0 (antibody, human IgG1, kappa)
heavy 1: not shown
heavy 2: not shown
light: B1 light
notes: as for B12
B16: GpH7-A5/GpH7-B3 variant Y300_04F/GpL16-k0 (antibody, human IgG1, kappa)
heavy 1: not shown
heavy 2: not shown
light: B1 light
notes: as for B12
B17: GpH7-A5/GpH7-B3 variant K334_16H/GpL16-k0 (antibody, human IgG1, kappa)
heavy 1: not shown
heavy 2: not shown
light: B1 light
notes: as for B12
B18: GpH7-A5/GpH7-B3 variant K334_07I/GpL16-k0 (antibody, human IgG1, kappa)
heavy 1: not shown
heavy 2: not shown
light: B1 light
notes: as for B12
B19: GpH7-A5/GpH7-B3 variant S267_07I/GpL16-k0 (antibody, human IgG1, kappa)
heavy 1: not shown
heavy 2: not shown
light: B1 light
notes: as for B12
B20: GpH7-A5/GpH7-B3 variant L328_15Y/GpL16-k0 (antibody, human IgG1, kappa)
heavy 1: not shown
heavy 2: not shown
light: B1 light
notes: as for B12
B21: GpH7-A5/GpH7-B3 variant T335_06M/GpL16-k0 (antibody, human IgG1, kappa)
heavy 1: not shown
heavy 2: not shown
light: B1 light
notes: as for B12
B22: GpH7-A5/GpH7-B3 variant T335_19Q/GpL16-k0 (antibody, human IgG1, kappa)
heavy 1: not shown
heavy 2: not shown
light: B1 light
notes: as for B12
B23: GpH7-A5/GpH7-B3 variant Y296_20W/GpL16-k0 (antibody, human IgG1, kappa)
heavy 1: not shown
heavy 2: not shown
light: B1 light
notes: as for B12
B24: GpH7-A5/GpH7-B3 variant L328_04F/GpL16-k0 (antibody, human IgG1, kappa)
heavy 1: not shown
heavy 2: not shown
light: B1 light
notes: as for B12
B25: GpH7-A5/GpH7-B3 variant S239_09D/GpL16-k0 (antibody, human IgG1, kappa)
heavy 1: not shown
heavy 2: not shown
light: B1 light
notes: as for B12
B26: GpH7-A5/GpH7-B3 variant L328_07I/GpL16-k0 (antibody, human IgG1, kappa)
heavy 1: not shown
heavy 2: not shown
light: B1 light
notes: as for B12
B27: GpH7-A5/GpH7-B3 variant S337_14T/GpL16-k0 (antibody, human IgG1, kappa)
heavy 1: not shown
heavy 2: not shown
light: B1 light
notes: as for B12
B28: GpH7-A5/GpH7-B3 variant T335_16H/GpL16-k0 (antibody, human IgG1, kappa)
heavy 1: not shown
heavy 2: not shown
light: B1 light
notes: as for B12
B29: GpH7-A5/GpH7-B3 variant S239_01G/GpL16-k0 (antibody, human IgG1, kappa)
heavy 1: not shown
heavy 2: not shown
light: B1 light
notes: as for B12
B30: GpH7-A5/GpH7-B3 variant L328_06M/GpL16-k0 (antibody, human IgG1, kappa)
heavy 1: not shown
heavy 2: not shown
light: B1 light
notes: as for B12
B31: GpH7-A5/GpH7-B3 variant K334_14T/GpL16-k0 (antibody, human IgG1, kappa)
heavy 1: not shown
heavy 2: not shown
light: B1 light
notes: as for B12
B32: GpH7-A5/GpH7-B3 variant K334_15Y/GpL16-k0 (antibody, human IgG1, kappa)
heavy 1: not shown
heavy 2: not shown
light: B1 light
notes: as for B12
B33: GpH7-A5/GpH7-B3 variant K334_03V/GpL16-k0 (antibody, human IgG1, kappa)
heavy 1: not shown
heavy 2: not shown
light: B1 light
notes: as for B12
B34: GpH7-A5/GpH7-B3 variant P238_08L/GpL16-k0 (antibody, human IgG1, kappa)
heavy 1: not shown
heavy 2: not shown
light: B1 light
notes: as for B12
B35: GpH7-A5/GpH7-B3 variant T335_09D/GpL16-k0 (antibody, human IgG1, kappa)
heavy 1: not shown
heavy 2: not shown
light: B1 light
notes: as for B12
B36: GpH7-A5/GpH7-B3 variant T335_18N/GpL16-k0 (antibody, human IgG1, kappa)
heavy 1: not shown
heavy 2: not shown
light: B1 light
notes: as for B12
B37: GpH7-A5/GpH7-B3 variant K334_18N/GpL16-k0 (antibody, human IgG1, kappa)
heavy 1: not shown
heavy 2: not shown
light: B1 light
notes: as for B12
B38: GpH7-A5/GpH7-B3 variant L328_03V/GpL16-k0 (antibody, human IgG1, kappa)
heavy 1: not shown
heavy 2: not shown
light: B1 light
notes: as for B12
B39: GpH7-A5/GpH7-B3 variant T335_20W/GpL16-k0 (antibody, human IgG1, kappa)
heavy 1: not shown
heavy 2: not shown
light: B1 light
notes: as for B12
B40: GpH7-A5/GpH7-B3 variant V266_06M/GpL16-k0 (antibody, human IgG1, kappa)
heavy 1: not shown
heavy 2: not shown
light: B1 light
notes: as for B12

Each binder was assayed against T1, FcγRIa (human, UniProt P12314 16-292) (assay: SPR (Biacore); He/Con_1a divided by He/Con_2b (FcγRIa against FcγRIIb)).
T1 construct: extracellular domain; Soluble extracellular domain with C-terminal His tag, used as analyte in Biacore; also called FcgRI; 1a; not shown: His tag attached to the C terminus
T1 sequence (P12314 16-292): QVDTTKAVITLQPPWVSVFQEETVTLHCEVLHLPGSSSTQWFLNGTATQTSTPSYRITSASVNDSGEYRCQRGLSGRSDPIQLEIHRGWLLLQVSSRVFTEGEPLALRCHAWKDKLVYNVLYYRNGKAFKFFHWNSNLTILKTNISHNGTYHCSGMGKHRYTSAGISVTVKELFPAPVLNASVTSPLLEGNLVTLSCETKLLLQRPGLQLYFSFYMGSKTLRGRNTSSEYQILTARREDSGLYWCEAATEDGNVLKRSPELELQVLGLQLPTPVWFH

Binder	Ia/IIb He_1a/2b [ratio]
B1	0.73
B2	0.46
B3	0.66
B4	0.52
B5	0.54
B6	0.63
B7	0.58
B8	0.41
B9	0.38
B10	0.55
B11	0.77

These binders were tested against T2, FcγRIIa R (human, UniProt P12318 34-217) (assay: SPR (Biacore), antibody captured via antigen peptide, FcγRIIa R as analyte; heterodimerized antibody).
T2 construct: extracellular domain; Soluble extracellular domain with C-terminal His tag, expressed in FreeStyle293 cells; also called FcgRIIa R; FcγRIIa type R; not shown: His tag attached to the C terminus
T2 sequence (looked up): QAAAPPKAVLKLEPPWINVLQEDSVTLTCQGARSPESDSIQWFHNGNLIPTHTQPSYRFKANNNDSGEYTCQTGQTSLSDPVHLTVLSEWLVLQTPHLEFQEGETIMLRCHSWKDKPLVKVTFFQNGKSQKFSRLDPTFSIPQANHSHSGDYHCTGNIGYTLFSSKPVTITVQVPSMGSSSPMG
Description: Analysis of interaction between objective antibody and the FcγR was carried out using Biacore T100 (GE Healthcare). HBS-EP+ (GE Healthcare) was used as the running buffer, and the measurement temperature was set to 25° C. Chips produced by immobilizing the antigen peptide by the amine coupling method to a Series S Sencor Chip CM5 (GE Healthcare), or alternatively, chips produced by allowing preliminarily biotinylated antigen peptides to interact with and immobilize onto a Series S Sensor Chip SA (certified) (GE Healthcare) were used. Antibodies of interest were captured onto an antigen peptide-immobilized chip, and allowed to interact to each FcγR diluted with running buffer. To regenerate and repeatedly use the chip, the antibodies captured on the chip were washed off by reacting 10 mM glycine-HCl, pH 1.5.

Binder	He/Con_2aR
B12	155 % of control (GpH7-A5/GpH7-B3/GpL16-k0 = 100)
B13	113 % of control (GpH7-A5/GpH7-B3/GpL16-k0 = 100)
B14	108 % of control (GpH7-A5/GpH7-B3/GpL16-k0 = 100)
B15	108 % of control (GpH7-A5/GpH7-B3/GpL16-k0 = 100)
B16	108 % of control (GpH7-A5/GpH7-B3/GpL16-k0 = 100)
B17	109 % of control (GpH7-A5/GpH7-B3/GpL16-k0 = 100)
B18	114 % of control (GpH7-A5/GpH7-B3/GpL16-k0 = 100)
B19	111 % of control (GpH7-A5/GpH7-B3/GpL16-k0 = 100)
B20	136 % of control (GpH7-A5/GpH7-B3/GpL16-k0 = 100)
B21	105 % of control (GpH7-A5/GpH7-B3/GpL16-k0 = 100)
B22	106 % of control (GpH7-A5/GpH7-B3/GpL16-k0 = 100)
B23	110 % of control (GpH7-A5/GpH7-B3/GpL16-k0 = 100)
B24	138 % of control (GpH7-A5/GpH7-B3/GpL16-k0 = 100)
B25	137 % of control (GpH7-A5/GpH7-B3/GpL16-k0 = 100)
B26	124 % of control (GpH7-A5/GpH7-B3/GpL16-k0 = 100)
B27	110 % of control (GpH7-A5/GpH7-B3/GpL16-k0 = 100)
B28	108 % of control (GpH7-A5/GpH7-B3/GpL16-k0 = 100)
B29	128 % of control (GpH7-A5/GpH7-B3/GpL16-k0 = 100)
B30	115 % of control (GpH7-A5/GpH7-B3/GpL16-k0 = 100)
B31	112 % of control (GpH7-A5/GpH7-B3/GpL16-k0 = 100)
B32	108 % of control (GpH7-A5/GpH7-B3/GpL16-k0 = 100)
B33	117 % of control (GpH7-A5/GpH7-B3/GpL16-k0 = 100)
B34	140 % of control (GpH7-A5/GpH7-B3/GpL16-k0 = 100)
B35	110 % of control (GpH7-A5/GpH7-B3/GpL16-k0 = 100)
B36	106 % of control (GpH7-A5/GpH7-B3/GpL16-k0 = 100)
B37	112 % of control (GpH7-A5/GpH7-B3/GpL16-k0 = 100)
B38	116 % of control (GpH7-A5/GpH7-B3/GpL16-k0 = 100)
B39	109 % of control (GpH7-A5/GpH7-B3/GpL16-k0 = 100)
B40	150 % of control (GpH7-A5/GpH7-B3/GpL16-k0 = 100)

Each binder was assayed against T1, FcγRIa (assay: SPR (Biacore), antibody captured on antigen peptide, FcγR as analyte; relative to GpH7-A5/GpH7-B3/GpL16-k0 = 100).

Binder	He/Con_1a
B1	90.3 % of control
B2	82.5 % of control
B3	75.1 % of control
B4	79.6 % of control
B5	79.6 % of control
B6	81.6 % of control
B7	96.6 % of control
B8	78.4 % of control
B9	84 % of control
B10	81.5 % of control
B11	82.8 % of control

The binders below were run against T3, FcγRIIb (human, UniProt P31994 43-217) in the same assay as above.
T3 construct: extracellular domain; Soluble extracellular domain with C-terminal His tag, used as analyte in Biacore; also called FcgRIIb; 2b; not shown: His tag attached to the C terminus
T3 sequence (looked up): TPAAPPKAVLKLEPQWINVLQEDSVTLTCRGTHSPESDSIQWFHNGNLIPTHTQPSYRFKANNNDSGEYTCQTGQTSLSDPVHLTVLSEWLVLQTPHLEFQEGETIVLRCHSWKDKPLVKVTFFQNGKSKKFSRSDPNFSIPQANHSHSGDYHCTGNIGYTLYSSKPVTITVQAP

Binder	He/Con_2b
B1	124 % of control
B2	180 % of control
B3	114 % of control
B4	152 % of control
B5	148 % of control
B6	130 % of control
B7	167 % of control
B8	193 % of control
B9	223 % of control
B10	149 % of control
B11	108 % of control
